# Source: US9296994B2, “Archease as RNA ligaes complex member” (IMBA—INSTITUT FÜR MOLEKULARE BIOTECHNOLOGIE GMBH, priority 2012, dated 2016)
# B1: wild-type Archease: Homo sapiens Archease protein (SEQ ID NO: 28), recombinant, enhances RNA ligase activity of HSPC117 (protein, listed as Homo sapiens)
# chain: MAQEEEDVRDYNLTEEQKAIKAKYPPVNRKYEYLDHTADVQLHAWGDTLEEAFEQCAMAMFGYMTDTGTVEPLQTVEVETQGDDLQSLLFHFLDEWLYKFSADEFFIPREVKVLSIDQRNFKLRSIGWGEEFSLSKHPQGTEVKAITYSAMQVYNEENPEVFVIIDI
# Assays:
# [1] = biological target: T1, human tRNA ligase complex (Homo sapiens, UniProt Q9Y3I0); test: RNA ligation assay with affinity-purified tRNA ligase complex and added recombinant Archease; format: biochemical; details: pre-cleaved tRNA substrates or linear intron, time course
# T1 construct: FLAG; made in house; Archease expressed in E. coli
# T1 sequence (Q9Y3I0 whole entry): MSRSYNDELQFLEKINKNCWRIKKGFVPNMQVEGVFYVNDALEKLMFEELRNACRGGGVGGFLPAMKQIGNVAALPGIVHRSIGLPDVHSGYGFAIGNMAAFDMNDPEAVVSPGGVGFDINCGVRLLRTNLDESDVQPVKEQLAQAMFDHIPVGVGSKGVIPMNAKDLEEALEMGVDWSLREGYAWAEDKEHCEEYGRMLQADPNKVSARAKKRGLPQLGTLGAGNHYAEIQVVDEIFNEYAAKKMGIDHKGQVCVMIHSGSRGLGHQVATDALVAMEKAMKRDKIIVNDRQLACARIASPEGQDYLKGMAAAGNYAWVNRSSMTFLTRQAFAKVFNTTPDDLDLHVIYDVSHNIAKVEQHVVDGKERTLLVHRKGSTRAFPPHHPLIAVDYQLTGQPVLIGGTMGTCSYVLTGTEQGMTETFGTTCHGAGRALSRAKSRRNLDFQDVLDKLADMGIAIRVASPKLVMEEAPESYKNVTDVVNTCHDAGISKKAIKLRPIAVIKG
# T1 sequence (Q92499 whole entry partner): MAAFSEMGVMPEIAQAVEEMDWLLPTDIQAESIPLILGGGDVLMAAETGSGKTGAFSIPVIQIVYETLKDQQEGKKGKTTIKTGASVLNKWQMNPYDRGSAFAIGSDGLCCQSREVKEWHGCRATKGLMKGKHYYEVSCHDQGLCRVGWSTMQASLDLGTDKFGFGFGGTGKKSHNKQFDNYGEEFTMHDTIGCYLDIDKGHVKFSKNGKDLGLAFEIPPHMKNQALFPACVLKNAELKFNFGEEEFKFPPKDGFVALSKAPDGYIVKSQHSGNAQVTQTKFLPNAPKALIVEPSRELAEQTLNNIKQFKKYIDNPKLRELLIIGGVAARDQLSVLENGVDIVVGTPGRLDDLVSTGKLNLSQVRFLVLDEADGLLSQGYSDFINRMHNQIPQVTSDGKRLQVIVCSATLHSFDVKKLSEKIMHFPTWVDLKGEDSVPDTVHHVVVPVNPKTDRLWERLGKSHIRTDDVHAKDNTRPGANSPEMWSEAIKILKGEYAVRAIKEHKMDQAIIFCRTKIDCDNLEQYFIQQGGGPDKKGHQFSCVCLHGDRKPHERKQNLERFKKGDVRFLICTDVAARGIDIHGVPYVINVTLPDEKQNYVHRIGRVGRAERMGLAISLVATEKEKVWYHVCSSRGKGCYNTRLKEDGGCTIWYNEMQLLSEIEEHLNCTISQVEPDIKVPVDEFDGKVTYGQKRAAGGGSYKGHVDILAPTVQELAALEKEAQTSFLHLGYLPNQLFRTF
# T1 sequence (Q52LJ0 whole entry partner): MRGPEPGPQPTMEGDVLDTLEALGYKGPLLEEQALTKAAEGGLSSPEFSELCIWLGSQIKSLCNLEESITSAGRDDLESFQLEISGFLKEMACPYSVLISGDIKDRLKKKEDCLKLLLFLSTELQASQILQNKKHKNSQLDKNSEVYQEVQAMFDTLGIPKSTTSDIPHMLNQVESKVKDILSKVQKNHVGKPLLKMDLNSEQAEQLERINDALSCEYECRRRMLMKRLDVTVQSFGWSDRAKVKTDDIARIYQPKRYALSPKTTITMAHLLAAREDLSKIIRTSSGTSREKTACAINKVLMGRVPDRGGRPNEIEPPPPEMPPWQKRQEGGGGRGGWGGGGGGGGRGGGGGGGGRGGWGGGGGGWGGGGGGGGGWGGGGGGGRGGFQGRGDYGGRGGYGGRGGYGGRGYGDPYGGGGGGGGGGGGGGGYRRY
# T1 sequence (Q9BVC5 whole entry partner): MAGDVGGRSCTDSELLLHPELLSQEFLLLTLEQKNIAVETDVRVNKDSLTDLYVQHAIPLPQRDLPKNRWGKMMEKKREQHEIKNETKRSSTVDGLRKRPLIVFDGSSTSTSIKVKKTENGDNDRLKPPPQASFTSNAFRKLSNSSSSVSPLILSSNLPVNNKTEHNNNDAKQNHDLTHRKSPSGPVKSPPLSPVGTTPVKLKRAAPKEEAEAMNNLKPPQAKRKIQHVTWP
# T1 sequence (Q9Y224 whole entry partner): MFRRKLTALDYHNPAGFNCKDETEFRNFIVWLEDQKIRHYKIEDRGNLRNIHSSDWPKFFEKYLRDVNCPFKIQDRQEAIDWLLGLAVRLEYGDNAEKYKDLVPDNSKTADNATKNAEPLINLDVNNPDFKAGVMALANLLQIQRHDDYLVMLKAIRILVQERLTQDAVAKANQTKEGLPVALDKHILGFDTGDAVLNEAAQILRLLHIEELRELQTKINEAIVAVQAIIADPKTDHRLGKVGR
# Procedure: FIG. 3: Archease boosts RNA ligation by the human tRNA ligase complex. A) Time-course ligation assay with affinity-purified tRNA ligase complex and pre-cleaved tRNA substrates in absence or presence of recombinant Archease. B) Time course ligation assay with affinity purified tRNA ligase complex and isolated linear introns (2.5 μM) in absence or presence of recombinant Archease (8.5 μM) expressed in E. coli. The signals corresponding to the concatemerized intron were quantified and plotted as fraction of the total signal detectable in the respective lane.
# FIG. 6: The point mutations D39A and K144A abolish the function of Archease in RNA ligation. A) Time-course of ligation activity of FLAG-HSPC117 complexes upon addition of recombinant wild-type or mutant Archease (15 μM). B) SDS-PAGE analysis of purified recombinant wild-type and mutant Archease.
# Addition of Archaease influences ligase activity of affinity purified human tRNA ligase complexes.
# To study the function of Archease the available NMR structure from the euryarchaeote Methanothermobacter thermautotrophicus (Yee et al., 2002) (36% identical to human protein) was used and aspartic acid (D) 39 and lysine (K) 144, both extremely conserved residues, were replaced by alanines (D39A; K144A) (FIG. 5). Wild-type and mutant versions of Archease were over-expressed in […] and tRNA ligase activity was measured. […] FIG. 6B confirms equal concentrations of recombinant proteins added to the reactions.
# [2] = biological target: T2, FLAG-RTCB, the catalytic subunit of the human tRNA ligase (Homo sapiens, UniProt Q9Y3I0); test: Assay to monitor Archease function and inhibition of RNA ligase activity (linear intron substrate); format: biochemical; details: FLAG-RTCB from HEK293 cells with His-tagged Archease, GTP or GMPcPP at 0.5 mM
# T2 construct: FLAG; made in house; host or cells: HEK293 cells (FLAG-RTCB)
# T2 sequence (Q9Y3I0 whole entry): as the sequence (Q9Y3I0 whole entry) above
# T2 sequence (Q92499 whole entry partner): as the sequence (Q92499 whole entry partner) above
# T2 sequence (Q52LJ0 whole entry partner): as the sequence (Q52LJ0 whole entry partner) above
# T2 sequence (Q9BVC5 whole entry partner): as the sequence (Q9BVC5 whole entry partner) above
# T2 sequence (Q9Y224 whole entry partner): as the sequence (Q9Y224 whole entry partner) above
# Procedure: FIG. 14: Assay to monitor inhibition of RNA ligase activity. […] The linear substrate (second from bottom to top) is converted into a circular product (bottom) or a concatemer (top), which is further circularized (third from bottom to top). Ligation only took place with wild-type Archease and GTP.
# The RNA ligation activity of FLAG-RTCB, the catalytic subunit of the human tRNA ligase, was determined in the presence of wildtype or mutant (D39A) Archease with the addition of GTP or non-hydrolysable GMPcPP (5′-guanylylmethylenebisphosphonate). […] The reaction was carried out with FLAG-RTCB purified from HEK293 cells and hexahistidine tagged wild-type or mutant Archease. Furthermore, GTP or GMPcPP were used at 0.5 mM concentration. A linear intron derived from a radioactively labelled pre-tRNA that was transcribed with T7 polymerase and cleaved with recombinant tRNA endonuclease from Methanocaldococcus jannaschii served as substrate. Cleavage products were resolved on preparative denaturing polyacrylamide gels and the linear intron was eluted overnight and recovered by precipitation. With reference to FIG. 14, FLAG-RTCB and wild-type Archease in the presence of GTP are able to convert the linear substrate (second from bottom to top) into a circular product (bottom) or a concatemer (top), which is further circularized (third from bottom to top). This type of assay can be used to validate candidate inhibitors of the Archease or even the ligase or to screen compound libraries in order to find inhibitory molecules.
molecule,measurement,setting,value
B1,RNA ligase activity of affinity purified tRNA ligase complex upon addition of recombinant Archease,[1],led to an increase in RNA ligase activity
same,RNA ligase activity of affinity purified tRNA ligase complex upon addition of recombinant Archease,[1]; listed as recombinant Archease,boosts ligation activity to a great extent
same,RNA ligation activity of FLAG-RTCB,[2],Ligation only takes place with wild-type Archease
